According to patent publication US20170362621A1, “ENGINEERED MULTIFUNCTIONAL ENZYMES AND METHODS OF USE” (Danisco US Inc., priority 2014, published 2017):

What was measured:
[1] = substrate: O=[N+]([O-])c1ccc(O[C@@H]2OC[C@@H](O)[C@H](O)[C@H]2O)cc1; experiment: steady state kinetics, hydrolysis of pNpX; type: biochemical, Trichoderma reesei; conditions: other: pNpX, 37° C.
Text: (§1) The Bgl1 variants of the table above were produced as follows. The nucleotide sequences encoding these variants were synthesized by an external vendor (BaseClear, Leiden, the Netherlands), and cloned into the pTTTpyr2 vector (see, e.g., published PCT application WO2014029808). Protoplasts of a Trichoderma reesei strain (e.g., the hexa-delete strain of International Publication WO05/001036) with its cbh1, cbh2, eg1, eg2, eg3, and bgl1 deleted) were transformed with plasmid DNA encoding the variants and wild type. The resulting transformants were fermented using standard Trichoderma reesei fermentation procedures.
(§2) Variants 02, 03 and 12 were diluted and incubated with varying concentrations of para-nitrophenol-beta-D-xylopyranoside (or para-nitrophenol-beta-D-xyloside) (pNpX) and para-nitrophenol-beta-D-glucopyranoside (pNpG) in the concentration range of 0.1-9 mM at 37° C. for 30 minutes. Reactions were stopped by addition of 100 μL 0.5 M sodium carbonate and absorbance was measured at 410 nm. Background subtracted OD410 absorbances were plotted against substrate concentration (FIG. 6B-E) and the data was fitted with a function for Michaelis-Menten kinetics using the statistical software package R. Michaelis constants and relative maximum velocities for hydrolysis of pNpX and pNpG were reported in Tables 6 and 7, below, respectively.
It was noted that the data for pNpX hydrolysis by the wild type Bgl1 could not be fitted with the Michaelis-Menten function. In order to calculate a Michalis constant the maximum velocity obtained for Variant 03 was used.

[2] = substrate: O=[N+]([O-])c1ccc(O[C@@H]2O[C@H](CO)[C@@H](O)[C@H](O)[C@H]2O)cc1; experiment: steady state kinetics, hydrolysis of pNpG; type: biochemical, Trichoderma reesei; conditions: other: pNpG, 0.1-9 mM, 37° C., 30 minutes
Text: as §1, §2

B1: Trichoderma reesei Bgl1 variant Bgl1-var-02, V43F (numbered per mature Bgl1, SEQ ID NO:3) (Trichoderma reesei; V74F) (protein)
chain: VVPPAGTPWGTAYDKAKAALAKLNLQDKVGIVSGVGWNGGPCFGNTSPASKISYPSLCLQDGPLGVRYSTGSTAFTPGVQAASTWDVNLIRERGQFIGEEVKASGIHVILGPVAGPLGKTPQGGRNWEGFGVDPYLTGIAMGQTINGIQSVGVQATAKHYILNEQELNRETISSNPDDRTLHELYTWPFADAVQANVASVMCSYNKVNTTWACEDQYTLQTVLKDQLGFPGYVMTDWNAQHTTVQSANSGLDMSMPGTDFNGNNRLWGPALTNAVNSNQVPTSRVDDMVTRILAAWYLTGQDQAGYPSFNISRNVQGNHKTNVRAIARDGIVLLKNDANILPLKKPASIAVVGSAAIIGNHARNSPSCNDKGCDDGALGMGWGSGAVNYPYFVAPYDAINTRASSQGTQVTLSNTDNTSSGASAARGKDVAIVFITADSGEGYITVEGNAGDRNNLDPWHNGNALVQAVAGANSNVIVVVHSVGAIILEQILALPQVKAVVWAGLPSQESGNALVDVLWGDVSPSGKLVYTIAKSPNDYNTRIVSGGSDSFSEGLFIDYKHFDDANITPRYEFGYGLSYTKFNYSRLSVLSTAKSGPATGAVVPGGPSDLFQNVATVTVDIANSGQVTGAEVAQLYITYPSSAPRTPPKQLRGFAKLNLTPGQSGTATFNIRRRDLSYWDTASQKWVVPSGSFGISVGASSRDIRLTSTLSVA
notes: diluted fermentation product
Km ([1]; 0.1-9 mM, 30 minutes): 5.7 mM
Km [2]: 4.8 mM

B2: Trichoderma reesei beta-glucosidase I (Bgl1), wild type, SEQ ID NO:2 (mature SEQ ID NO:3) (Trichoderma reesei) (protein)
chain: VVPPAGTPWGTAYDKAKAALAKLNLQDKVGIVSGVGWNGGPCVGNTSPASKISYPSLCLQDGPLGVRYSTGSTAFTPGVQAASTWDVNLIRERGQFIGEEVKASGIHVILGPVAGPLGKTPQGGRNWEGFGVDPYLTGIAMGQTINGIQSVGVQATAKHYILNEQELNRETISSNPDDRTLHELYTWPFADAVQANVASVMCSYNKVNTTWACEDQYTLQTVLKDQLGFPGYVMTDWNAQHTTVQSANSGLDMSMPGTDFNGNNRLWGPALTNAVNSNQVPTSRVDDMVTRILAAWYLTGQDQAGYPSFNISRNVQGNHKTNVRAIARDGIVLLKNDANILPLKKPASIAVVGSAAIIGNHARNSPSCNDKGCDDGALGMGWGSGAVNYPYFVAPYDAINTRASSQGTQVTLSNTDNTSSGASAARGKDVAIVFITADSGEGYITVEGNAGDRNNLDPWHNGNALVQAVAGANSNVIVVVHSVGAIILEQILALPQVKAVVWAGLPSQESGNALVDVLWGDVSPSGKLVYTIAKSPNDYNTRIVSGGSDSFSEGLFIDYKHFDDANITPRYEFGYGLSYTKFNYSRLSVLSTAKSGPATGAVVPGGPSDLFQNVATVTVDIANSGQVTGAEVAQLYITYPSSAPRTPPKQLRGFAKLNLTPGQSGTATFNIRRRDLSYWDTASQKWVVPSGSFGISVGASSRDIRLTSTLSVA
notes: secreted mature protein
Km ([1]; data could not be fitted, calculated with the maximum velocity obtained for Variant 03): 45.1 mM
Km [2]: 1.3 mM

B3: Trichoderma reesei Bgl1 variant Bgl1-var-03, V43L (numbered per mature Bgl1, SEQ ID NO:3) (Trichoderma reesei; V74L) (protein)
chain: VVPPAGTPWGTAYDKAKAALAKLNLQDKVGIVSGVGWNGGPCLGNTSPASKISYPSLCLQDGPLGVRYSTGSTAFTPGVQAASTWDVNLIRERGQFIGEEVKASGIHVILGPVAGPLGKTPQGGRNWEGFGVDPYLTGIAMGQTINGIQSVGVQATAKHYILNEQELNRETISSNPDDRTLHELYTWPFADAVQANVASVMCSYNKVNTTWACEDQYTLQTVLKDQLGFPGYVMTDWNAQHTTVQSANSGLDMSMPGTDFNGNNRLWGPALTNAVNSNQVPTSRVDDMVTRILAAWYLTGQDQAGYPSFNISRNVQGNHKTNVRAIARDGIVLLKNDANILPLKKPASIAVVGSAAIIGNHARNSPSCNDKGCDDGALGMGWGSGAVNYPYFVAPYDAINTRASSQGTQVTLSNTDNTSSGASAARGKDVAIVFITADSGEGYITVEGNAGDRNNLDPWHNGNALVQAVAGANSNVIVVVHSVGAIILEQILALPQVKAVVWAGLPSQESGNALVDVLWGDVSPSGKLVYTIAKSPNDYNTRIVSGGSDSFSEGLFIDYKHFDDANITPRYEFGYGLSYTKFNYSRLSVLSTAKSGPATGAVVPGGPSDLFQNVATVTVDIANSGQVTGAEVAQLYITYPSSAPRTPPKQLRGFAKLNLTPGQSGTATFNIRRRDLSYWDTASQKWVVPSGSFGISVGASSRDIRLTSTLSVA
notes: diluted fermentation product
Km ([1]; 0.1-9 mM, 30 minutes): 7 mM
Km [2]: 1.17 mM

B4: Trichoderma reesei Bgl1 variant Bgl1-var-12, V43F/W237A (numbered per mature Bgl1, SEQ ID NO:3) (Trichoderma reesei; V74F/W268A) (protein)
chain: VVPPAGTPWGTAYDKAKAALAKLNLQDKVGIVSGVGWNGGPCFGNTSPASKISYPSLCLQDGPLGVRYSTGSTAFTPGVQAASTWDVNLIRERGQFIGEEVKASGIHVILGPVAGPLGKTPQGGRNWEGFGVDPYLTGIAMGQTINGIQSVGVQATAKHYILNEQELNRETISSNPDDRTLHELYTWPFADAVQANVASVMCSYNKVNTTWACEDQYTLQTVLKDQLGFPGYVMTDANAQHTTVQSANSGLDMSMPGTDFNGNNRLWGPALTNAVNSNQVPTSRVDDMVTRILAAWYLTGQDQAGYPSFNISRNVQGNHKTNVRAIARDGIVLLKNDANILPLKKPASIAVVGSAAIIGNHARNSPSCNDKGCDDGALGMGWGSGAVNYPYFVAPYDAINTRASSQGTQVTLSNTDNTSSGASAARGKDVAIVFITADSGEGYITVEGNAGDRNNLDPWHNGNALVQAVAGANSNVIVVVHSVGAIILEQILALPQVKAVVWAGLPSQESGNALVDVLWGDVSPSGKLVYTIAKSPNDYNTRIVSGGSDSFSEGLFIDYKHFDDANITPRYEFGYGLSYTKFNYSRLSVLSTAKSGPATGAVVPGGPSDLFQNVATVTVDIANSGQVTGAEVAQLYITYPSSAPRTPPKQLRGFAKLNLTPGQSGTATFNIRRRDLSYWDTASQKWVVPSGSFGISVGASSRDIRLTSTLSVA
notes: diluted fermentation product
Km ([1]; 0.1-9 mM, 30 minutes): 18.4 mM
Km [2]: 9.1 mM
